Results taken from patent US6271012.

What was measured:
[1] = target: succinyl-L-alanyl-L-alanyl-L-prolyl-L-phenylalanyl-p-nitroanilide (not provided)
[2] = target: casein (Hammerstein, Merck)
[3] = target: casein (Hammerstein, Merck); remark: listed apart in the source

Row | Substance | kcat/Km (Km in mM and kcat in 1/s) [1] [M⁻¹ s⁻¹] | Specific activity relative to PB92 protease (%), ADU method [2] [%] | turnover number (kcat) measured on casein [3] [s⁻¹]
1 | PB92 protease mutant S160C (enzyme) | 21000 | 48 | –
2 | PB92 protease mutant E134K (enzyme) | 49000 | 95 | –
3 | PB92 protease mutant [S160D, M216S] (enzyme) | – | 17 | –
4 | PB92 protease mutant S160D (enzyme) | 12000 | 73 | –
5 | PB92 protease mutant M216S (enzyme) | 5000 | 40 | –
6 | PB92 protease M216-oxidized (enzyme) | 9000 | 50 | –
7 | PB92 protease mutant [G116V, S126R, P127S, S128P] (enzyme) | – | 81 | –
8 | PB92 protease mutant M169I, M216S (enzyme) | – | 44 | –
9 | PB92 protease mutant M117L, M216S (enzyme) | 8000 | 36 | –
10 | PB92 protease mutant G116V, S126N, P127H, S128I (enzyme) | – | 115 | –
11 | PB92 protease mutant M216C (enzyme) | 30000 | 36 | –
12 | PB92 protease mutant N212S (enzyme) | – | 85 | –
13 | PB92 protease (serine protease of Bacillus nov. spec. PB92) (enzyme) | 102000 | – | 90

The next lines start with the values.

Row | kcat/Km (Km in mM and kcat in 1/s) [1] [M⁻¹ s⁻¹] | Specific activity relative to PB92 protease (%), ADU method [2] [%] | turnover number (kcat) measured on casein [3] [s⁻¹] | Substance
14 | 19000 | – | – | PB92 protease mutant [G116V, S126F, P127L, S128T] (enzyme)
15 | 65000 | 81 | – | PB92 protease mutant [G116V, S126L, P127N, S128V] (enzyme)
16 | 86000 | 100 | – | PB92 protease mutant N212D (enzyme)
17 | 13000 | 95 | – | PB92 protease mutant [G116V, S126G, P127Q, S128I] (enzyme)
18 | – | 100 | – | PB92 protease mutant [A166D, M169I] (enzyme)
19 | 2000 | 27 | – | PB92 protease mutant M117L, M216Q (enzyme)
20 | 3000 | 37 | – | PB92 protease mutant M216Q (enzyme)
21 | – | 69 | – | PB92 protease mutant G116V, S126Y, P127G, S128L (enzyme)
22 | 11000 | 47 | – | PB92 protease mutant S160K (enzyme)
23 | 57000 | 62 | – | PB92 protease mutant [G116V, S126L, P127Q, S128A] (enzyme)
24 | 86000 | 43 | – | PB92 protease mutant [G116V, S126V, P127E, S128K] (enzyme)
25 | 180000 | 115 | – | PB92 protease mutant [S126M, P127A, S128G] (enzyme)
26 | 18000 | 76 | – | PB92 protease mutant [S160G, N212D] (enzyme)
27 | – | 12 | – | PB92 protease mutant [S160D, M216Q] (enzyme)
28 | – | 73 | – | PB92 protease mutant [G116V, S126H, P127Y] (enzyme)
29 | 98000 | 69 | – | PB92 protease mutant [G116V, S126V, P127M] (enzyme)
